Substitutions are numbered along the chain they refer to. Values belong to the binder of their own block, whether it stands above or below them.
Biological target: T1, CD3 epsilon homodimer protein (UniProt P07766 23-126)
T1 construct: also called CD3 (CD3 epsilon)
Assay: SPR Biacore T200, CD3e homodimer on chip, vs unaltered GLS3000 antibody

T1 sequence (P07766 23-126): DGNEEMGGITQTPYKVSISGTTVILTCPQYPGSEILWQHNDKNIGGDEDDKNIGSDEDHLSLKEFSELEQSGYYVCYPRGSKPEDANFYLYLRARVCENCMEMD

B2: GLS3000 K50S (antibody, name in Kabat numbering, V domains shown)
VH: QVQLVESGGGVVQPGRSLRLSCAASGFTFSNAWMHWVRQAPGKGLEWVAQIKAKSNNYATYYAESVKGRFTISRDDSKNSLYLQMNSLKTEDTAVYYCRYVHYGAYYGVDAWGQGTTVTVSS
VL: DIVMTQSPLSLPVTPGEPASISCRSSQSLVHSNRNTYLHWYQQKPGQAPRLLIYSVSNRFSGVPDRFSGSGSGTDFTLKISRVEAEDVGVYYCGQGTQVPYTFGQGTKLEIK
notes: one-arm IgG as m2
ratio of amounts bound (Z=Y/X): 0.23

B8: GLS3000 K50L (antibody, name in Kabat numbering, V domains shown)
VH: B2 VH
VL: B2 VL with S55L
notes: one-arm IgG as m2
ratio of amounts bound (Z=Y/X): 0.24

B9: GLS3000 L27bW (antibody, name in Kabat numbering, V domains shown)
VH: B2 VH
VL: B2 VL with L29W, S55K
notes: one-arm IgG as m2
ratio of amounts bound (Z=Y/X): 0.26

B12: GLS3000 K50Q (antibody, name in Kabat numbering, V domains shown)
VH: B2 VH
VL: B2 VL with S55Q
notes: one-arm IgG as m2
ratio of amounts bound (Z=Y/X): 0.18

B13: GLS3000 H34E (antibody, name in Kabat numbering, V domains shown)
VH: B2 VH
VL: B2 VL with H39E, S55K
notes: one-arm IgG as m2
ratio of amounts bound (Z=Y/X): 0.23

B15: GLS3000 K107E (antibody, name in Kabat numbering, V domains shown)
VH: B2 VH
VL: B2 VL with S55K, K112E
notes: one-arm IgG as m2
ratio of amounts bound (Z=Y/X): 0.94

B16: GLS3000 K50A (antibody, name in Kabat numbering, V domains shown)
VH: B2 VH
VL: B2 VL with S55A
notes: one-arm IgG as m2
ratio of amounts bound (Z=Y/X): 0.23

B17: GLS3000 H34K (antibody, name in Kabat numbering, V domains shown)
VH: B2 VH
VL: B2 VL with H39K, S55K
notes: one-arm IgG as m2
ratio of amounts bound (Z=Y/X): 2.17

B18: GLS3000 L27bS (antibody, name in Kabat numbering, V domains shown)
VH: B2 VH
VL: B2 VL with L29S, S55K
notes: one-arm IgG as m2
ratio of amounts bound (Z=Y/X): 0.71

B20: GLS3000 H34A (antibody, name in Kabat numbering, V domains shown)
VH: B2 VH
VL: B2 VL with H39A, S55K
notes: one-arm IgG as m2
ratio of amounts bound (Z=Y/X): 1.06

B21: GLS3000 H34R (antibody, name in Kabat numbering, V domains shown)
VH: B2 VH
VL: B2 VL with H39R, S55K
notes: one-arm IgG as m2
ratio of amounts bound (Z=Y/X): 0.2

B22: GLS3000 H27dY (antibody, name in Kabat numbering, V domains shown)
VH: B2 VH
VL: B2 VL with H31Y, S55K
notes: one-arm IgG as m2
ratio of amounts bound (Z=Y/X): 0.64

B24: GLS3000 H34W (antibody, name in Kabat numbering, V domains shown)
VH: B2 VH
VL: B2 VL with H39W, S55K
notes: one-arm IgG as m2
ratio of amounts bound (Z=Y/X): 0.24

B26: GLS3000 H27dW (antibody, name in Kabat numbering, V domains shown)
VH: B2 VH
VL: B2 VL with H31W, S55K
notes: one-arm IgG as m2
ratio of amounts bound (Z=Y/X): 0.39

B27: GLS3000 K50E (antibody, name in Kabat numbering, V domains shown)
VH: B2 VH
VL: B2 VL with S55E
notes: one-arm IgG as m2
ratio of amounts bound (Z=Y/X): 0.24

B28: GLS3000 K50D (antibody, name in Kabat numbering, V domains shown)
VH: B2 VH
VL: B2 VL with S55D
notes: one-arm IgG as m2
ratio of amounts bound (Z=Y/X): 0.22

B29: GLS3000 K50R (antibody, name in Kabat numbering, V domains shown)
VH: B2 VH
VL: B2 VL with S55R
notes: one-arm IgG as m2
ratio of amounts bound (Z=Y/X): 0.5

B32: GLS3000 L27bV (antibody, name in Kabat numbering, V domains shown)
VH: B2 VH
VL: B2 VL with L29V, S55K
notes: one-arm IgG as m2
ratio of amounts bound (Z=Y/X): 1.12

B34: GLS3000 H34F (antibody, name in Kabat numbering, V domains shown)
VH: B2 VH
VL: B2 VL with H39F, S55K
notes: one-arm IgG as m2
ratio of amounts bound (Z=Y/X): 0.27

B35: GLS3000 L27bF (antibody, name in Kabat numbering, V domains shown)
VH: B2 VH
VL: B2 VL with L29F, S55K
notes: one-arm IgG as m2
ratio of amounts bound (Z=Y/X): 0.42

B36: GLS3000 L27bP (antibody, name in Kabat numbering, V domains shown)
VH: B2 VH
VL: B2 VL with L29P, S55K
notes: one-arm IgG as m2
ratio of amounts bound (Z=Y/X): 0.91

B37: GLS3000 K50P (antibody, name in Kabat numbering, V domains shown)
VH: B2 VH
VL: B2 VL with S55P
notes: one-arm IgG as m2
ratio of amounts bound (Z=Y/X): 0.3

B38: GLS3000 L27bD (antibody, name in Kabat numbering, V domains shown)
VH: B2 VH
VL: B2 VL with L29D, S55K
notes: one-arm IgG as m2
ratio of amounts bound (Z=Y/X): 0.17

B39: GLS3000 K50Y (antibody, name in Kabat numbering, V domains shown)
VH: B2 VH
VL: B2 VL with S55Y
notes: one-arm IgG as m2
ratio of amounts bound (Z=Y/X): 0.24

B40: GLS3000 H34N (antibody, name in Kabat numbering, V domains shown)
VH: B2 VH
VL: B2 VL with H39N, S55K
notes: one-arm IgG as m2
ratio of amounts bound (Z=Y/X): 0.65

B42: GLS3000 K50G (antibody, name in Kabat numbering, V domains shown)
VH: B2 VH
VL: B2 VL with S55G
notes: one-arm IgG as m2
ratio of amounts bound (Z=Y/X): 0.16

B45: GLS3000 H34M (antibody, name in Kabat numbering, V domains shown)
VH: B2 VH
VL: B2 VL with H39M, S55K
notes: one-arm IgG as m2
ratio of amounts bound (Z=Y/X): 0.35

Now from value to binder:

ratio of amounts bound (Z=Y/X): 0.32
B1: GLS3000 H27dS (antibody, name in Kabat numbering, V domains shown)
VH: B2 VH
VL: B2 VL with H31S, S55K
notes: one-arm IgG as m2

ratio of amounts bound (Z=Y/X): 0.22
B3: GLS3000 H34D (antibody, name in Kabat numbering, V domains shown)
VH: B2 VH
VL: B2 VL with H39D, S55K
notes: one-arm IgG as m2

ratio of amounts bound (Z=Y/X): 0.19
B4: GLS3000 K50T (antibody, name in Kabat numbering, V domains shown)
VH: B2 VH
VL: B2 VL with S55T
notes: one-arm IgG as m2

ratio of amounts bound (Z=Y/X): 1.19
B5: GLS3000 L27bI (antibody, name in Kabat numbering, V domains shown)
VH: B2 VH
VL: B2 VL with L29I, S55K
notes: one-arm IgG as m2

ratio of amounts bound (Z=Y/X): 0.25
B6: GLS3000 H34Q (antibody, name in Kabat numbering, V domains shown)
VH: B2 VH
VL: B2 VL with H39Q, S55K
notes: one-arm IgG as m2

ratio of amounts bound (Z=Y/X): 0.78
B7: GLS3000 H34S (antibody, name in Kabat numbering, V domains shown)
VH: B2 VH
VL: B2 VL with H39S, S55K
notes: one-arm IgG as m2

ratio of amounts bound (Z=Y/X): 0.25
B10: GLS3000 L27bY (antibody, name in Kabat numbering, V domains shown)
VH: B2 VH
VL: B2 VL with L29Y, S55K
notes: one-arm IgG as m2

ratio of amounts bound (Z=Y/X): 0.34
B11: GLS3000 H34P (antibody, name in Kabat numbering, V domains shown)
VH: B2 VH
VL: B2 VL with H39P, S55K
notes: one-arm IgG as m2

ratio of amounts bound (Z=Y/X): 0.89
B14: GLS3000 H34T (antibody, name in Kabat numbering, V domains shown)
VH: B2 VH
VL: B2 VL with H39T, S55K
notes: one-arm IgG as m2

ratio of amounts bound (Z=Y/X): 0.17
B19: GLS3000 L27bE (antibody, name in Kabat numbering, V domains shown)
VH: B2 VH
VL: B2 VL with L29E, S55K
notes: one-arm IgG as m2

ratio of amounts bound (Z=Y/X): 0.65
B23: GLS3000 H34I (antibody, name in Kabat numbering, V domains shown)
VH: B2 VH
VL: B2 VL with H39I, S55K
notes: one-arm IgG as m2

ratio of amounts bound (Z=Y/X): 0.84
B25: GLS3000 K74T (antibody, name in Kabat numbering, V domains shown)
VH: B2 VH
VL: B2 VL with S55K, K79T
notes: one-arm IgG as m2

ratio of amounts bound (Z=Y/X): 0.85
B30: GLS3000 H34V (antibody, name in Kabat numbering, V domains shown)
VH: B2 VH
VL: B2 VL with H39V, S55K
notes: one-arm IgG as m2

ratio of amounts bound (Z=Y/X): 0.71
B31: GLS3000 L27bM (antibody, name in Kabat numbering, V domains shown)
VH: B2 VH
VL: B2 VL with L29M, S55K
notes: one-arm IgG as m2

ratio of amounts bound (Z=Y/X): 1.02
B33: GLS3000 H34G (antibody, name in Kabat numbering, V domains shown)
VH: B2 VH
VL: B2 VL with H39G, S55K
notes: one-arm IgG as m2

ratio of amounts bound (Z=Y/X): 0.29
B41: GLS3000 H27dT (antibody, name in Kabat numbering, V domains shown)
VH: B2 VH
VL: B2 VL with H31T, S55K
notes: one-arm IgG as m2

ratio of amounts bound (Z=Y/X): 0.59
B43: GLS3000 H34Y (antibody, name in Kabat numbering, V domains shown)
VH: B2 VH
VL: B2 VL with H39Y, S55K
notes: one-arm IgG as m2

ratio of amounts bound (Z=Y/X): 0.59
B44: GLS3000 H34L (antibody, name in Kabat numbering, V domains shown)
VH: B2 VH
VL: B2 VL with H39L, S55K
notes: one-arm IgG as m2

ratio of amounts bound (Z=Y/X): 0.3
B46: GLS3000 H27dV (antibody, name in Kabat numbering, V domains shown)
VH: B2 VH
VL: B2 VL with H31V, S55K
notes: one-arm IgG as m2

Reference: patent publication US20210388087A1 (Chugai, published 2021)
